The values that follow come from the supplement of paper PMC10567573.

First the molecules themselves.
B1: ZNF207 (parent)
chain: FQPQPVQPQQGYIPPMAQPGLPPV
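Note: lentivirally expressed fusions sorted by FACS into six bins by GFP to DsRed ratio, PSI derived from sequencing read proportions per bin multiplied by bin number.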

This series covers variants of B1. As to the kind of experiment: protein stability index of a GFP-peptide fusion (GPS, HEK-293T) (PSI 1-6); higher = more stable. Conditions: c terminus: a fixed tail appended.
Consider FSPQPVQPQQGYIPPMAQPGLPPV [Q2S], for which the protein stability index stood at 3.16.

On to FRPQPVQPQQGYIPPMAQPGLPPV [Q2R], for which the protein stability index was determined as 3.46.

With FVPQPVQPQQGYIPPMAQPGLPPV [Q2V], the protein stability index was 2.51.

For FWPQPVQPQQGYIPPMAQPGLPPV [Q2W], the protein stability index amounted to 2.54.

On to FYPQPVQPQQGYIPPMAQPGLPPV [Q2Y], for which the protein stability index came to 2.92.

Turning to FNPQPVQPQQGYIPPMAQPGLPPV [Q2N], the protein stability index worked out at 3.66.

Turning to FMPQPVQPQQGYIPPMAQPGLPPV [Q2M], the protein stability index turned out to be 3.13.

Regarding FLPQPVQPQQGYIPPMAQPGLPPV [Q2L], the protein stability index turned out to be 3.49.

For FQPQPVQHQQGYIPPMAQPGLPPV [P8H], the protein stability index was 2.89.

FQPQPVQGQQGYIPPMAQPGLPPV [P8G]: the protein stability index came out at 2.96.

In the case of FQPQPVQFQQGYIPPMAQPGLPPV [P8F], the protein stability index was found to be 2.88.

As for FQPQPVQAQQGYIPPMAQPGLPPV [P8A], the protein stability index worked out at 3.27.

Take FQPQPVQCQQGYIPPMAQPGLPPV [P8C]: the protein stability index worked out at 2.54.

With FQPQPVQTQQGYIPPMAQPGLPPV [P8T], the protein stability index came out at 2.91.

For the variant FQPQPVQVQQGYIPPMAQPGLPPV [P8V], the protein stability index turned out to be 2.92.

Regarding FQPQPVQNQQGYIPPMAQPGLPPV [P8N], the protein stability index amounted to 3.03.

For the variant FQPQPVQWQQGYIPPMAQPGLPPV [P8W], the protein stability index was 2.31.

Consider FQPQPVQKQQGYIPPMAQPGLPPV [P8K], for which the protein stability index turned out to be 3.15.

With FQPQPVQMQQGYIPPMAQPGLPPV [P8M], the protein stability index is 2.47.

For the variant FQPQPVQSQQGYIPPMAQPGLPPV [P8S], the protein stability index turned out to be 2.97.

Take FQPQPVQEQQGYIPPMAQPGLPPV [P8E]: the protein stability index was determined as 3.22.

As to FQPQPVQRQQGYIPPMAQPGLPPV [P8R], the protein stability index came to 2.61.

Take FQPQPVQDQQGYIPPMAQPGLPPV [P8D]: the protein stability index worked out at 3.32.

For the variant FQPQPVQQQQGYIPPMAQPGLPPV [P8Q], the protein stability index came to 2.95.

On to FQPQPVQIQQGYIPPMAQPGLPPV [P8I], for which the protein stability index was determined as 3.1.

Consider FQPQPVQLQQGYIPPMAQPGLPPV [P8L], for which the protein stability index was 3.19.

With FQPQPVQYQQGYIPPMAQPGLPPV [P8Y], the protein stability index was determined as 2.53.

As to FQPQPVQPRQGYIPPMAQPGLPPV [Q9R], the protein stability index came to 3.26.

Turning to FQPQPVQPGQGYIPPMAQPGLPPV [Q9G], the protein stability index was 2.74.

As to FQPQPVQPEQGYIPPMAQPGLPPV [Q9E], the protein stability index was 3.45.

Regarding FQPQPVQPWQGYIPPMAQPGLPPV [Q9W], the protein stability index turned out to be 1.88.

As for FQPQPVQPAQGYIPPMAQPGLPPV [Q9A], the protein stability index is 3.35.

On to FQPQPVQPIQGYIPPMAQPGLPPV [Q9I], for which the protein stability index came to 2.89.

FQPQPVQPHQGYIPPMAQPGLPPV [Q9H]: the protein stability index was 3.24.

With FQPQPVQPCQGYIPPMAQPGLPPV [Q9C], the protein stability index was determined as 2.77.

For FQPQPVQPKQGYIPPMAQPGLPPV [Q9K], the protein stability index worked out at 2.91.

In the case of FQPQPVQPVQGYIPPMAQPGLPPV [Q9V], the protein stability index is 3.61.

On to FQPQPVQPMQGYIPPMAQPGLPPV [Q9M], for which the protein stability index came out at 2.88.

For the variant FQPQPVQPNQGYIPPMAQPGLPPV [Q9N], the protein stability index was found to be 2.72.

Regarding FQPQPVQPSQGYIPPMAQPGLPPV [Q9S], the protein stability index stood at 3.43.

On to FQPQPVQPYQGYIPPMAQPGLPPV [Q9Y], for which the protein stability index came to 2.32.

FQPQPVQPTQGYIPPMAQPGLPPV [Q9T]: the protein stability index was 3.01.

Consider FQPQPVQPLQGYIPPMAQPGLPPV [Q9L], for which the protein stability index was found to be 2.54.

On to FQPQPVQPDQGYIPPMAQPGLPPV [Q9D], for which the protein stability index came out at 3.59.

Take FQPQPVQPFQGYIPPMAQPGLPPV [Q9F]: the protein stability index stood at 2.34.

As to FQPQPVSPQQGYIPPMAQPGLPPV [Q7S], the protein stability index is 3.5.

As for FQPQPVGPQQGYIPPMAQPGLPPV [Q7G], the protein stability index came to 2.78.

As to FQPQPVHPQQGYIPPMAQPGLPPV [Q7H], the protein stability index was 2.82.

In the case of FQPQPVCPQQGYIPPMAQPGLPPV [Q7C], the protein stability index was 2.88.

For the variant FQPQPVVPQQGYIPPMAQPGLPPV [Q7V], the protein stability index came out at 3.63.

Regarding FQPQPVEPQQGYIPPMAQPGLPPV [Q7E], the protein stability index is 2.98.

Regarding FQPQPVRPQQGYIPPMAQPGLPPV [Q7R], the protein stability index came to 2.83.

With FQPQPVFPQQGYIPPMAQPGLPPV [Q7F], the protein stability index turned out to be 2.72.

As to FQPQPVYPQQGYIPPMAQPGLPPV [Q7Y], the protein stability index is 2.5.

Take FQPQPVLPQQGYIPPMAQPGLPPV [Q7L]: the protein stability index amounted to 3.04.

In the case of FQPQPVKPQQGYIPPMAQPGLPPV [Q7K], the protein stability index stood at 3.04.

Consider FQPQPVDPQQGYIPPMAQPGLPPV [Q7D], for which the protein stability index worked out at 3.26.

For the variant FQPQPVMPQQGYIPPMAQPGLPPV [Q7M], the protein stability index came to 3.21.

FQPQPVIPQQGYIPPMAQPGLPPV [Q7I]: the protein stability index turned out to be 3.29.

With FQPQPVWPQQGYIPPMAQPGLPPV [Q7W], the protein stability index was 2.25.

Turning to FQPQPKQPQQGYIPPMAQPGLPPV [V6K], the protein stability index amounted to 3.08.

FQPQPSQPQQGYIPPMAQPGLPPV [V6S]: the protein stability index came out at 3.19.

Turning to FQPQPGQPQQGYIPPMAQPGLPPV [V6G], the protein stability index was found to be 3.1.

For FQPQPIQPQQGYIPPMAQPGLPPV [V6I], the protein stability index amounted to 2.96.

FQPQPMQPQQGYIPPMAQPGLPPV [V6M]: the protein stability index was found to be 2.71.

Take FQPQPNQPQQGYIPPMAQPGLPPV [V6N]: the protein stability index stood at 2.86.

On to FQPQPYQPQQGYIPPMAQPGLPPV [V6Y], for which the protein stability index stood at 2.75.

Regarding FQPQPWQPQQGYIPPMAQPGLPPV [V6W], the protein stability index came out at 2.62.

In the case of FQPQPLQPQQGYIPPMAQPGLPPV [V6L], the protein stability index came to 3.06.

Take FQPQPCQPQQGYIPPMAQPGLPPV [V6C]: the protein stability index stood at 2.89.

For the variant FQPQPEQPQQGYIPPMAQPGLPPV [V6E], the protein stability index worked out at 3.61.

Turning to FQPQPDQPQQGYIPPMAQPGLPPV [V6D], the protein stability index stood at 3.26.

For the variant FQPQPFQPQQGYIPPMAQPGLPPV [V6F], the protein stability index came to 2.19.

Regarding FQPQPRQPQQGYIPPMAQPGLPPV [V6R], the protein stability index turned out to be 2.92.

On to FQPQPVQPQQAYIPPMAQPGLPPV [G11A], for which the protein stability index came to 3.03.

With FQPQPVQPQQDYIPPMAQPGLPPV [G11D], the protein stability index was 3.63.

Turning to FQPQPVQPQQFYIPPMAQPGLPPV [G11F], the protein stability index worked out at 2.45.

On to FQPQPVQPQQEYIPPMAQPGLPPV [G11E], for which the protein stability index was 3.69.

Turning to FQPQPVQPQQHYIPPMAQPGLPPV [G11H], the protein stability index stood at 3.21.

FQPQPVQPQQPYIPPMAQPGLPPV [G11P]: the protein stability index is 2.74.

In the case of FQPQPVQPQQNYIPPMAQPGLPPV [G11N], the protein stability index came to 2.93.

For the variant FQPQPVQPQQQYIPPMAQPGLPPV [G11Q], the protein stability index came out at 3.18.

With FQPQPVQPQQKYIPPMAQPGLPPV [G11K], the protein stability index came to 2.89.

FQPQPVQPQQLYIPPMAQPGLPPV [G11L]: the protein stability index turned out to be 2.65.

For the variant FQPQPVQPQQWYIPPMAQPGLPPV [G11W], the protein stability index is 2.19.

As to FQPQPVQPQQIYIPPMAQPGLPPV [G11I], the protein stability index turned out to be 2.29.

For the variant FQPQPVQPQQSYIPPMAQPGLPPV [G11S], the protein stability index was 2.8.

In the case of FQPQPVQPQQYYIPPMAQPGLPPV [G11Y], the protein stability index was determined as 2.18.

Consider FQPQPVQPQQVYIPPMAQPGLPPV [G11V], for which the protein stability index turned out to be 2.56.

As for FQPQPVQPQQCYIPPMAQPGLPPV [G11C], the protein stability index came out at 2.18.

Regarding FQPQPVQPQQTYIPPMAQPGLPPV [G11T], the protein stability index was determined as 2.6.

On to FQPQPVQPQQMYIPPMAQPGLPPV [G11M], for which the protein stability index was 2.66.

Regarding FQPQPVQPQQRYIPPMAQPGLPPV [G11R], the protein stability index turned out to be 3.21.

Turning to FQPQPVQPQQGDIPPMAQPGLPPV [Y12D], the protein stability index turned out to be 3.73.
